Laboratory results from the RNAGym collection of RNA variant scans (doi:10.7554/elife.80360).

B1: Twister Ribozyme (parent)
chain: AACACUGCCAAUGCCGGUCCCAAGCCCGGAUAAAAGUGGAGGGGGCGG

Variants of: B1
Experiment: self-cleavage, relative activity (ratio to wild type); higher = more cleavage; co-transcriptional

Point of comparison: A23G G42U, self-cleavage 0.121. Against it:
- A22G G24A — lower, 0.114
- A22G G24U — lower, 0.0699
- A23C G28C — lower, 0.0761
- A23C G28A — higher, 0.225
- A22G A34C — lower, 0.0775
- A22G U37C — higher, 0.129
- A23U C25U — lower, 0.116
- A23U C25A — lower, 0.0618
- G24C G44U — lower, 0.0952
- G24A A35U — lower, 0.113
- G24A A35C — lower, 0.102
- A22U A34C — lower, 0.0816
- A22U A34U — higher, 0.495
- G24A U37G — lower, 0.0506
- G24A U37C — lower, 0.067
- G24C A30C — lower, 0.0817
- G24C A30U — lower, 0.0977
- G24C A30G — lower, 0.096
- G24A G45U — lower, 0.118
- G24A G45C — lower, 0.0846
- G24A G38A — lower, 0.101
- G24A G38C — lower, 0.106
- G24U A32C — lower, 0.113
- A23U G47U — higher, 0.163
- A22C G44C — higher, 0.905
- A22C G44U — higher, 0.967
- G24C G36C — lower, 0.0888
- G24C G36A — lower, 0.115
- A22G G47A — higher, 0.184
- A22G G47C — higher, 0.128
- A22G G47U — higher, 0.136
- A22C U31A — higher, 0.54
- A22C U31C — higher, 1.12
- A22G A23C — lower, 0.115
- A22G A23U — lower, 0.0557
- A23G G24C — lower, 0.0875
- A23G G24U — lower, 0.063
- A23G G24A — lower, 0.12
- G24C A34G — lower, 0.103
- A23C C26A — higher, 0.199
- A23C C26G — lower, 0.12
- A22G G28A — higher, 0.128
- A22G G28U — higher, 0.197
- A22G G28C — higher, 0.215
- A22G A33C — higher, 0.147
- G24A A33U — lower, 0.0989
- A22G G36C — lower, 0.0743
- G24A G47A — lower, 0.096
- G24A G47U — lower, 0.0892
- A23U C27U — higher, 0.305
- A23C G42U — lower, 0.0925
- A23C G42A — lower, 0.113
- A23C G42C — higher, 0.156
- A23G C26A — lower, 0.0747
- A22G C26U — lower, 0.101
- A23C G39A — higher, 0.127
- A23C G39C — lower, 0.103
- A22G G38A — lower, 0.106
- A22G G38U — higher, 0.122
- G24A G29A — higher, 0.155
- G24A G29U — lower, 0.1
- A22C A33G — higher, 0.802
- G24C G43A — lower, 0.0738
- A22U A32C — higher, 0.859
- A22U A32G — higher, 0.786
- A22U A32U — higher, 0.71
- A22C G29A — higher, 1.01
- A22C G29U — higher, 0.89
- A23C G29A — higher, 0.196
- G24C G39C — lower, 0.0715
- G24C A35U — lower, 0.0871
- G24C A35G — lower, 0.0669
- A22G A35U — higher, 0.313
- A22G A35C — higher, 0.195
- A23U G24A — lower, 0.0917
- A23U G24C — lower, 0.109
- A23C A40U — higher, 0.146
- A23C A40C — lower, 0.0967
- A23C A40G — higher, 0.128
- G24A U31G — lower, 0.105
- A22U G47U — higher, 0.67
- A22C G47C — higher, 0.458
- A22C G24C — lower, 0.0817
- A22C G24A — higher, 0.131
- A22C G24U — lower, 0.0876
- A23C A35U — higher, 0.404
- A23C A32G — higher, 0.187
- A23C A32C — higher, 0.22
- A23U G42A — higher, 0.125
- A23U G42C — higher, 0.148
- A23U G42U — lower, 0.0934
- A23C G48A — higher, 0.14
- A23C G48U — higher, 0.181
- A22G G29C — lower, 0.0828
- A22G G29A — higher, 0.221
- G24A C46A — lower, 0.0898
- G24A C46U — lower, 0.107
- A23G A34C — lower, 0.0596
- A23G A34G — lower, 0.112
- A23C G24U — lower, 0.0714
- A23C G24A — lower, 0.107
- G24C A40G — lower, 0.0575
- G24C A40C — higher, 0.141
- A23U A30C — lower, 0.115
- G24A G36C — lower, 0.12
- A23G C27G — lower, 0.0997
- A23U G43U — lower, 0.112
- A23U G43A — lower, 0.118
- G24A A40G — lower, 0.0838
- G24A A40U — lower, 0.112
- G24C G45U — lower, 0.119
- A23C G43U — lower, 0.109
- A23C G43C — higher, 0.123
- G24A G41A — lower, 0.0508
- A23G C46A — higher, 0.328
- A23U C46A — higher, 0.325
- A23U C46G — higher, 0.652
- A23U C46U — higher, 0.731
- G24C C46A — lower, 0.109
- A22U C27A — higher, 0.159
- A22U C26G — lower, 0.0767
- A23U U31G — higher, 0.643
- A22C U37G — higher, 0.631
- A22C U37A — higher, 0.84
- A23G G39U — higher, 0.142
- A23G G39C — lower, 0.102
- G24A G43U — lower, 0.0769
- A22U A23U — lower, 0.102
- A22U A23C — lower, 0.0587
- G24A G39C — lower, 0.0986
- A22C G43A — higher, 0.183
- A22C G43C — higher, 0.145
- A23C G47C — higher, 0.13
- G24U A35G — lower, 0.0925
- G24A — higher, 0.125
- G24C — lower, 0.102
- G24U — higher, 0.128
- A23G G42A — higher, 0.128
- A23C C46U — higher, 0.486
- A23C C46G — higher, 0.155
- A22U A35C — higher, 0.778
- A22U A35U — higher, 0.659
- G24A G42C — lower, 0.0923
- G24A G42U — lower, 0.091
- A22U A40C — higher, 0.184
- A22U A40G — higher, 0.734
- G24C G38U — lower, 0.0774
- G24C G38A — lower, 0.106
- G24C G38C — higher, 0.144
- A22G G48U — higher, 0.334
- A23C A30U — higher, 0.264
- A23C A30C — lower, 0.116
- A23G G41A — higher, 0.15
- A23G G41U — lower, 0.0995
- A23G G38C — higher, 0.289
- A22C G36A — higher, 0.547
- A22C G36C — higher, 0.345
- A22U G28C — higher, 0.548
- A22U G24C — lower, 0.0864
- A22U G24U — lower, 0.11
- G24C C25A — higher, 0.325
- G24C C25G — lower, 0.118
- A23C C25A — lower, 0.066
- A23C C25G — lower, 0.0881
- G24A C27A — lower, 0.0771
- G24A C27G — lower, 0.105
